A short description of the series: yeast display, Sf9 membrane polyspecificity reagent, FACS + sequencing; frameworks hold sequencing errors. The gist of the method:
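Synthetic nanobody libraries on Saccharomyces cerevisiae BJ5465 were galactose-induced for 36–48 hours, stained 1 hour at 4 °C with 10% biotinylated, detergent-solubilized Sf9 membrane reagent and enriched on streptavidin microbeads. FACS then separated cells into low and high (top ~1%) gates by anti-HA (expression) and streptavidin (reagent binding) fluorescence. Genes were colony-PCR amplified, MiSeq 2 × 250 sequenced and CDR-length filtered. A clone's polyreactivity label is that of its gate of origin.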
Take “QVQLVESGGGLVQAGGSLRLSCAASGLIFVTNAMGGYRQAPGKERELVAAITRSGGSTYYADSVKGRFTISRDNAKNTVYLQMNSLKQEDTAVYYCATGFHYAYGYWGQGTQVTVSS”: the “polyreactivity (PSR sort gate)” value is “low polyreactivity”. With “QVQLVESGGGLVQAGGSLRLSCAASGRTFYGNAMGWYSQAPGKERELVAAITDVDSTYYADSVKGRFTISRDNAKNSVYLQMNSLKPEDTAVYYCNADTSWGYPYGYWGQGTQVTVSS”, the “polyreactivity (PSR sort gate)” value is on record as “low polyreactivity”. To “QVQLVESGGGLVQAGGSLRLSCAASGSIFWQNGMGWYRQAPGKEREFVAAITRTGGSTYYADSVKGRFTISRDNAKNTVYLQMNSLKPEDTAVYYCAARGGYRYTRYDYWGQGTQVTVSS” belongs “high polyreactivity”. The value for “QVQLVESGGGLVQAGGSLRLTCAASGLILYWYAMGLYRQAPGTEMELVAAISISGGSTYYADSVKGRFTISRDNAKNTVYLQMNSLKPEDTAVYYCAAVYFYSWEGDGDYWGQGTQVTVSS” was “low polyreactivity”; that for “QVQLVESGGGLVQAGGSLRLSCAASGSIFGSYAMGWYRQAPGKERELVAGITRRSGSTYYADSVKGRFTISRDNAKNTVYLQMNSLKPEDTAVYYCNAQAYSRRWDARGDYWGQGTQVTVSS” was “high polyreactivity”. The value for “QVQLVESGGGLVQAGGSLRLSCAASGRIFYYYAMGWYRQAPGKERELVASINSVGTTTYADSVKGRFTISRDNAKNTVYLKMNSLKPEDTAVYYCARDTGCIYYDGYAYDYWGQGTEVTVSS” was “low polyreactivity”; that for “QVQLVESGGGLVQAGGSLRLSCAASGSILVGNPMGWYRQAPGTERELVAAISKSGSSTHYADSVKGRFTISRDNAKNTFYLQMNSLKPEDTAVYYCNAVGRVYRAKYDYWGQGTQVTVSS” was “high polyreactivity”; that for “QVQLVESGGGLVQAGGSLRLSCAASGYIFTGNAMGWYRQAPGKEREFVAAISWSGGSTYYADSVKGRFTISRDNAKNTVYLQMNSLKPEDTAVYDCNKYRPYGRIYHLAYGRDDWGQGTQVTVSS” was “high polyreactivity”. For “QVQLVESGGGLVQAGGSLRLICAASGNTFKDYTMVWYIQAPRKERDLVASINSGGSTNYADSVKGRFTISRDNAKNTVYLQMNSLKPEDTAVYYCAKRAWSDYNPIDYWGQGTQVSVSS”, the “polyreactivity (PSR sort gate)” value is “low polyreactivity”. The value for “QVQLVESGGGLVQAGGSLRLSCAASGSIFGRNDMGWYRQAPGKERELVARITRGGSTNYADSVKGRFTISRDNAKNTVYLQMNSLKPEDTAVYYCAAGARQYRGVPDRYGYWGQGTQVTVSS” was “low polyreactivity”; that for “QVQLVESGGGLVQAGGSLRLICAASGLTFSGYVMAWYRQAPGKERELVAAISLSGGSTYYADSVKGRFTISRDNAKNTVYLQMNSLKPEDTAVYYCAASTRFYNSYRREYWGQGTQVTVSS” was “high polyreactivity”. To “QVQLVESGGGLVQAGGSLRLSCDASGSTFDTYAMGCYTQAPGKERELVAAITEDGASTYYADSVKGRFTISRDNAKYTVYLQMNSLKPEDTAVYYCAAEPTYWPVWYVLYDYLGQGTQVTVSS” belongs “low polyreactivity”; to “QDQLVESGGGLVQAGGSLRLSCAASGSILLLNMGWYRQAPGKEMELVASIRWSGGITYYADSVKGRFTISRDNAKNTVYLQMNSLKPEDTAVYYCAARTYRYFGRYDYWGQGTQVTVSS”, “high polyreactivity”; to “QVQLVESGGGLVQAGGSLRLSCAATGSTSGKNAMGWYRQAPAKERELFAAIRNSGGTTYYADSVKGRFTISRDNAKNTVYLQMNSLKPEDTAVYYCATRYYLNFLDGYNYWGQGTQVTVSS”, “high polyreactivity”. With “QVQLVESGGGLVQAGGSLRLSCAASGRIFSRYAMGWYRQAPGKERELVAAINKSGGSTYYADSVKGRFTISRDNAKNTVYLQMNSLKPEDTAVYYCNAVYYYGRRRYGYWGQGTQVTVSS”, the “polyreactivity (PSR sort gate)” value is recorded as “high polyreactivity”. To “QVQLVESGGGLVQAGGSLRLSCAASGRTFYFNAMGWYRPAPGKERELVAAITSGVRTKYADSVKGRFTISRDNAKNTVYLQMNSLKPEDTAVYYCAAGGYPSRYAPWMEYWGQGTQVTVSS” belongs “high polyreactivity”; to “QVQLVESGGGLVQAGGSLRLTCAASGPIFVLYAMGWYRQAPGKERELVAAISTSGGSTYYADSVKGRFTISRDNAKNTVYLQMNSLKPEDTAVYYCAADRSARFLFIQYYPYGMDYWGQGTQVTVSS”, “high polyreactivity”. The value for “QLQLVESGGGLVQAGASLRLSCAASGFIFKYNAMGWYRQAPCKERELVSAISRGTSTYYADSVKGRFTISRDNAKNTVYLQLNSLKPEDTAVYYCEATGRRPGQKYMGYDYWGQGTQVTVSS” was “high polyreactivity”; that for “QVQLVESGGGLVQAGGSLRLSCAASGFTFGWYAMGWYRQAPGKEREFVAAISRSGGSTYYADSVKGRFTISRDNAKNTVYLQMNSLKPEDTAVYYCAAYIIGDTHAEYDYWGQGTQVTVSS” was “high polyreactivity”; that for “QVQLVESGGGLVQAGGSLRLSCAASGNIFLYYAMGWYRQAPGKERELVADIDSSGASTYYADSVKGRFTISRDNAKNTVYLQMNSLKPEDTAVYYCATEDFRTDTGMYYWGQGTQVTVSS” was “low polyreactivity”. To “QVQLVESGGGLVQAGGSLRLSCAASGFIFDRNTMGWYRQAPGKERELVAAISRSGGSTYYADSVKGRFTISRDNAKNTVYLLMNSLKPEDSAVYYCAALYYYRNRSYDYWGQGTQVTVSS” belongs “high polyreactivity”.

With “QVQLVESGGGLVQAGGSLRLSCAPSGLTFKDYTMGWYRQAPGKERELVAAISKSGGRTYYADSVKGRFTISRDNAKNTVYLQMNSLKPEDTAVYYCNADSRTYRYYWSYGYWGQGTQVTVSS”, the “polyreactivity (PSR sort gate)” value is “high polyreactivity”. On to “QVQLVESGGGLVQAGGSLRLSCAASGSIFQSYAMGWYRQAPGKERELVAAITERGGSTYYADSVKGRFTISRDTAKNTVYLQMNSLKPEDTAVYYCAADIYYWWCLSDLYTPTEGDYWGQGTQVTVSS”, for which the “polyreactivity (PSR sort gate)” value is given as “low polyreactivity”.

For the sequence “QVQLEESGGGLVQAGGSLRLSCAASGSTFYGYGMGWYRQAPGKERELVAAITGSGDTTYYADSVKGRFTISRDNAKNTVYLQMNSLKTEDTAVYYCNARWHAEYDYWGQGTQVTVSS”, the “polyreactivity (PSR sort gate)” value was “low polyreactivity”.

Regarding “QVQLVESGGGLVQAGGSLRLSCAASGLILPYYAMGWYRQAPGKERELVAAISRTGGRTSYADSVKGRFTISRDNAKNTVYLQMNSLKPEDTAVYYCAAVGQSGGRRYDYWGQGTQVTVSS”, the “polyreactivity (PSR sort gate)” value is listed as “high polyreactivity”. The value for “QVQLVESGGGLVQAGGSLRLSCAASGRIFRSYAMGWYRQAPGKERELVAAITWSGGSTYYADSVKGRFTISRDNAKNTVYLQMHSLKPEDTAVYYCARVVTKKYSHTGYEYWGQGTQVTVSS” was “high polyreactivity”. Regarding “QVQLVESGGGLVQAGGSLRLSCAASGSTFSVYTMGWYRQAPGKERELVAAITSGGTYYADSVKGRFTISRDNAKNTVYLQMNSLKPEDTAVYYCAADVLSVGKHYDYWGQCTQVTVSS”, the “polyreactivity (PSR sort gate)” value is listed as “low polyreactivity”. The value for “QVQLVESGGGLVQAGGSLRLSCAASGFTFYYNAMGWYRQAPGKERELVAAISSNGGSTYYADSVKGRFTISRDNAKNTVYLQMNSLKPEDTAVYYCAAYPKSSRWDFESWGQGTQVTVSS” was “low polyreactivity”; that for “QVQLVESGGGLVQAGGSLRLSCAASGLIFTYYAMGWYRQAPGKERELVAAITSGGSTNYADSVKGRFTISRDNAKYTVYLQMNSLKPEDTAVYYCAADYDTGSERYEYWGQGSQVTVSS” was “low polyreactivity”. To “QVQLVESGGGLVQAGGRLRLSCAASGRIFKDNAMGWYRQAPGKERELVAAISSGASTSYADSVKGRFTISRDNAKNTVYLQMNSLKPEDTAVYYCNRGGDLYYPGWLFDYWGQGTQVTVSS” belongs “low polyreactivity”; to “QVQIVESGGGLVQAGGSLRLSCAASGRIFYNYAMGWNRQAPGKERELVAAISGSGGSTYYADSVKGRFTISRDNAKNTVYLQMNSLKPEDTAVYYCSTSGPQYYSRNFDYWGQGTQVTVSS”, “low polyreactivity”. The value for “QVQLVDSGGGLVQAGGSLRLICAASGLIFYKYAMGWYRQAPGKERELVASISTGGGSTYYADSVKGRFTISRDNAKNTVYLQMNSLQPEDTAVYYCAARWWRRFRGSHSLYDYWGQGTEVTVSS” was “high polyreactivity”; that for “QVQLVESGGGLVQAGGSLRLSCAASGRTFSAYAMGWYRQAPGKERELVAAISRRGGSTYYADSVKGRFTISRDNAKNTVYLQMNSLKPEDTAVYYCAADVYKQYGYYYWGQGTQVTVSS” was “high polyreactivity”.

Take “QVQLVESRGALVQAGGSLRLSCAASGYIFRAYAMGWYRPAPGKERELVAAISSRGGSTYYADSVKGRFTISRDNAKNTVYLQMNSLKPEDTAVYYCAAAYRQPYIGYGYWGQGTQVTVSS”: the “polyreactivity (PSR sort gate)” value was “high polyreactivity”. Take “QVQLVESGGGLVQAGGSLRLSCAASGSIFGAIAMGWYRQAPGKERELVPAITSGGSTNYADSVKGRFTISRDNAKNTFYLQMNSLKPEDTAVYYCAARRRYAKFRYDYWGQGTQVTVSS”: the “polyreactivity (PSR sort gate)” value is on record as “high polyreactivity”.

Regarding “QVQLVESGGGLVQAGGSLRLTCAASGSIFGYAMGWYRQEPGKERELVAAISFSGVSTYYADSVKGRFTISRDNAKNTVYLLMNSLKPEDTAVYDCNAYSDGDEDYWGQGTQVTVSS”, the “polyreactivity (PSR sort gate)” value is “low polyreactivity”.

For the sequence “QVQLVESGGGLVQAGGSLRLSCAASGSSFRRNAMGWYRQAPGKERELVAAITRGGGSTYYADSVKGRFTISRDNAKNTVYLQMNSLKPEDTAVYYCAAQISATRETMDYWGQGTQVTVSS”, the “polyreactivity (PSR sort gate)” value is on record as “high polyreactivity”. To “QVHLVESGGGLVQAGGSLRLSCAASGRISFNAMGWYRQAHAKERELVAAISRRGGSTYYADSVKGRFTISRDNAKNTVSLQMNSLKPEDTAVYYCAPDIIRPVTVDYWGQGTQVTVSS” belongs “high polyreactivity”. The value for “QVQLVESGGGLVQEGGSLRLSCAASGRTFSYNAMGWYSQAPGKERELFAAITGRGGSTYYADSVKGRFTISRDNAKKTVYLQMNRLKPEVTAVYYCNAVDAGYHRDRDYWGLGTQVTVSS” was “low polyreactivity”.

For “QVQLVESGGGLVQAGGSLRLSCAASGITFLSNAMGWYRQAPGKERELDAAISRGGGTTYYADSVKGRFTISRDIAKNTVYLLMNCLKPEDTAGSYCGTESTHTRRYWYEYWGLGTQVTVSS”, the “polyreactivity (PSR sort gate)” value is given as “high polyreactivity”. To “QVQLVESGGGLVQAGGSLRLSCAASGSTSPFYVMGWYRQAPGKERELVAAISYSGGSTYYADSVKGRFTISRDNAKNTVYLQMISLKPEDTAVYYCAARYRLTYGLYGYWGQGTQVTVSS” belongs “high polyreactivity”.

Source of the values: the nanobody polyreactivity screen of Harvey et al. (2022).
